Measurements taken from PMC7057995, “Structural basis of RNA polymerase I pre-initiation complex formation and promoter melting”.

Target: Core factor (CF) wild type: Rrn6/Rrn7/Rrn11 (Saccharomyces cerevisiae, UniProt P32786;P40992;Q04712 1-894;1-514;1-507)
Assay: EMSA; 0.2 pmol DNA; 0.25, 0.5, 1 pmol CF; EMSA: 20 mM HEPES/KOH pH 7.8, 10% glycerol, 200 mM KCl, 1 mM MgCl2, 0.1 mg/ml BSA, 1 mM DTT, 30 min, temperature not stated; 6% native gel, 0.5x TBE
Conditions: protein: recombinant; tags: His (Ni-NTA purified); copies: 1;1;1; label: NTS -3 Atto647N; TS -5 Cy3; blunt

Core factor (CF) wild type: Rrn6/Rrn7/Rrn11, sequence (P32786 whole entry, chain 1 of 3): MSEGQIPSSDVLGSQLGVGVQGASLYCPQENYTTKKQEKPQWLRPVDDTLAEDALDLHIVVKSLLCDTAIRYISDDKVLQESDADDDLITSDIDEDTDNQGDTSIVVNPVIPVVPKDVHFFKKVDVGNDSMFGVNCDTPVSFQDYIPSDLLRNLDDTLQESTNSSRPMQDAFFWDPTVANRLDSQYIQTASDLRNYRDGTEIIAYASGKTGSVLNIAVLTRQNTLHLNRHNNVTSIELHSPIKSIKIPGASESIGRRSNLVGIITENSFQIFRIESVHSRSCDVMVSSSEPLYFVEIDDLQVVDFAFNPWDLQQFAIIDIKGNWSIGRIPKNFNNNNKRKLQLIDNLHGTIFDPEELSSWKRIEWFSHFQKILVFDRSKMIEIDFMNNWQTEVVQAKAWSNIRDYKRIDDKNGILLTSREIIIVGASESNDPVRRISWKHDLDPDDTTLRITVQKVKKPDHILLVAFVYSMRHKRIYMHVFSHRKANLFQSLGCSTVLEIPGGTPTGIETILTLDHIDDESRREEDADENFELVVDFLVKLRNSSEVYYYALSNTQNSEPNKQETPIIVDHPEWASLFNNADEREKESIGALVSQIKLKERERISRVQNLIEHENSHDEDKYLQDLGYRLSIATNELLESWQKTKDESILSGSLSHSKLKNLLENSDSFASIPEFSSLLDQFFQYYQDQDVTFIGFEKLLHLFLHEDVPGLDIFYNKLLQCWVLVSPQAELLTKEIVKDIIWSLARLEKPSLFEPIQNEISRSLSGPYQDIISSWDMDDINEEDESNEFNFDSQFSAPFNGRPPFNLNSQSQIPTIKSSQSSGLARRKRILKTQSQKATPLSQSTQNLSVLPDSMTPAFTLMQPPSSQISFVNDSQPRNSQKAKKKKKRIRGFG
Core factor (CF) wild type: Rrn6/Rrn7/Rrn11, sequence (P40992 whole entry, chain 2 of 3): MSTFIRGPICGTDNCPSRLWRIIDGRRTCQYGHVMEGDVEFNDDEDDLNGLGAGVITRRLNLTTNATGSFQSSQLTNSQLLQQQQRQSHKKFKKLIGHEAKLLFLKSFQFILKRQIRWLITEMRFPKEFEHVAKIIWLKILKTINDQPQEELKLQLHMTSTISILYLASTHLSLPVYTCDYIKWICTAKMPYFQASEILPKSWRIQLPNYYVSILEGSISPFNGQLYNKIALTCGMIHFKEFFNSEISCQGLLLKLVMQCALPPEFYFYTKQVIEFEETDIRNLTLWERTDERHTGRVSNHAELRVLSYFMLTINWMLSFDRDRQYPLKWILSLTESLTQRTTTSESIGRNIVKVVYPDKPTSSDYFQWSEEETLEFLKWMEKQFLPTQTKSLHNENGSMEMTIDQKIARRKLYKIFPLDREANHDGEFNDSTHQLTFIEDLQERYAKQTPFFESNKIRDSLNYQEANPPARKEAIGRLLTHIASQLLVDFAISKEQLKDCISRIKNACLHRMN
Core factor (CF) wild type: Rrn6/Rrn7/Rrn11, sequence (Q04712 whole entry, chain 3 of 3): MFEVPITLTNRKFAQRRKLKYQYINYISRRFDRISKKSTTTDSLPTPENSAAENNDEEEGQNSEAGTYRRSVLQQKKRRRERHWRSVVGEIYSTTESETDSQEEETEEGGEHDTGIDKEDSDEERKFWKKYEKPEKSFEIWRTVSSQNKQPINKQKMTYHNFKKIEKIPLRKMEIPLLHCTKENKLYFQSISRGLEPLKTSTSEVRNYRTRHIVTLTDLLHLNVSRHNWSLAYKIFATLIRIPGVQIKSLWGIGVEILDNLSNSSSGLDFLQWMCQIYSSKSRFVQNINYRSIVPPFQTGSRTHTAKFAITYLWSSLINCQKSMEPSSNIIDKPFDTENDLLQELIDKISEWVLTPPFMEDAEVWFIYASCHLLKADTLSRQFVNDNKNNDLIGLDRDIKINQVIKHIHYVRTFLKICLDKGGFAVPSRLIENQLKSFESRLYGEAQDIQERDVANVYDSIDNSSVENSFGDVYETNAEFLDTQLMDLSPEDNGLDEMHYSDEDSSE

B1: rDNA promoter -83 to +26 (EMSA; ID 4691/4692) (dsDNA)
DNA 1: AAAAGTAAGATTTTAGTTTGTAATGGGAGGGGGAATTTAGTCATGGAGTACAAGTGTGAGGAAAAGTAGTTGGGAGGTACTTCATACCAAAGGGGTTCAACACAAGGGT
DNA 2: ACCCTTGTGTTGAACCCCTTTGGTATGAAGTACCTCCCAACTACTTTTCCTCACACTTGTACTCCATGACTAAATTCCCCCTCCCATTACAAACTAAAATCTTACTTTT
- binding result: binds
